The record followed here is patent US20160075795A1 (Hoffmann-La Roche, published 2016).

Changes are numbered by the printed parent chain.

Test [1] addresses T1, membrane-bound human carcinoembryonic antigen (CEA) (human, UniProt P06731 35-685, GPI anchor at the C-terminus of the mature chain; heavily N-glycosylated. Neither can be carried in the letters.).
T1 construct: Target of the flow cytometry experiments; also called CEACAM-5; CD66e
T1 sequence: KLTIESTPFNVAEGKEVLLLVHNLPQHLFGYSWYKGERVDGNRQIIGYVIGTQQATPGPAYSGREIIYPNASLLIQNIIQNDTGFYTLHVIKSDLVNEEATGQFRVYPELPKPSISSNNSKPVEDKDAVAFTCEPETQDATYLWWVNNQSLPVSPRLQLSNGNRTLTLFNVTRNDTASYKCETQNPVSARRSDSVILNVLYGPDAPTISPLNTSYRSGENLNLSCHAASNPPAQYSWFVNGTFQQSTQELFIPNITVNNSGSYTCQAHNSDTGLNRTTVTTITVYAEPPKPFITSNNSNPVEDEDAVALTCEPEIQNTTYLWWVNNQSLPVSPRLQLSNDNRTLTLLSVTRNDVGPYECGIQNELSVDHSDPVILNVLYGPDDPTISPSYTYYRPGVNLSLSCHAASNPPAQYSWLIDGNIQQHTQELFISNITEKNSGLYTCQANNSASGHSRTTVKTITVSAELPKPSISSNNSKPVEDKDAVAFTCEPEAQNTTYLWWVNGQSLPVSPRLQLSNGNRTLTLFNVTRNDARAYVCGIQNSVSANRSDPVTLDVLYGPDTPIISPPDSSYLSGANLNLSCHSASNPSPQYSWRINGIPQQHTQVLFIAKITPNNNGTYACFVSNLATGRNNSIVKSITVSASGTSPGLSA
The experiment in a line: flow cytometry on MKN45 target cells, antibodies as IgG [top panel]. Background: In flow cytometry, cells or beads pass a laser one at a time.

Test [2] concerns the target T2, huNABA-avi-his (human, biotinylated in vivo at the avi tag).
T2 construct: immobilized on the Biacore chip; also called NABA-avi-his reagent; N-A1-B3-A2
T2 chain: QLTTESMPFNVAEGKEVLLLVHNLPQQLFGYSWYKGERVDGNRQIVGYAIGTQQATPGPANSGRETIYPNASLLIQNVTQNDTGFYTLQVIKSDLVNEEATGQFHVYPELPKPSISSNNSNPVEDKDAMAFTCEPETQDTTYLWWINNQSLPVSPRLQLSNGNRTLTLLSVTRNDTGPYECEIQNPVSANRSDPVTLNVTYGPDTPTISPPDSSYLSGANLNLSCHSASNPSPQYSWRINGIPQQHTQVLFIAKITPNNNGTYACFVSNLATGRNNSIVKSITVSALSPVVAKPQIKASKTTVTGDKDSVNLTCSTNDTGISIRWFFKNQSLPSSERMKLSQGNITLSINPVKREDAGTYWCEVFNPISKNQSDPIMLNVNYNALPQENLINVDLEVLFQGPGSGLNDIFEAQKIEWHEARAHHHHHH
Kind of test: SPR (Biacore); antigen not given, taken as huNABA-avi-his.

For test [3], the target named is T2, huNABA-avi-his. Kind of test: SPR (Biacore), Fab over immobilized NABA-avi-his; monovalent affinity column. The method, then:
For the exact analysis of the kinetic parameters, Fabs were purified from bacterial cultures. A 500 ml culture was inoculated and induced with 1 mM IPTG at an OD600 0.9. Bacteria were incubated at 25° C. overnight and harvested by centrifugation. After the incubation of the resuspended pellet for 20 min in 25 ml PPB buffer (30 mM Tris-HCl pH8, 1 mM EDTA, 20% sucrose), bacteria were centrifuged again and the supernatant was harvested. This incubation step was repeated once with 25 ml of a 5 mM MgSO₄ solution. The supernatants of both incubation steps were pooled, filtered and loaded on a IMAC column (His gravitrap, GE Healthcare). Subsequently, the column was washed with 40 volumes. After the elution (500 mM NaCl, 500 mM Imidazole, 20 mM NaH₂PO₄ pH 7.4) the eluate was re-buffered using PD 10 columns (GE Healthcare). The kinetic parameters of the purified Fabs were then studied by SPR-analysis in a dilution row that ranged from 200 nM to 6.25 nM.
Table 11, below, summarizes the affinity constants of the various affinity matured antibody sequences. The parental antibody PR1A3 is listed as well as several light chain and heavy chain combinations of matured and non matured sequences. All values were obtained by Biacore technology by measuring the association (kₒₙ) and dissociation (koff) rate constants of the various soluble antibody constructs in Fab format on a Biacore chip with immobilized NABA-avi-his reagent (SEQ ID NO 158) as the antigen. The affinity constant is labeled with KD.

Test [4] addresses T2, huNABA-avi-his. Kind of test: SPR (Biacore), immobilized NABA-avi-his; bivalent affinity column (bivalent construct not described). A general note: SPR reads the build-up and loss of mass on a sensor chip optically.
Test [5] concerns the target T1, membrane-bound human carcinoembryonic …. Kind of test: flow cytometry on CEA-positive MKN45 target cells, antibodies as IgG [bottom panel].

B1: CH7A / CL1A rH11 antibody (parent heavy chain with affinity matured light chain) (antibody, human IgG1, V domains shown)
VH: QVQLVQSGSELKKPGASVKVSCKASGYTFTEFGMNWVRQAPGQGLEWMGWINTKTGEATYVEEFKGRFVFSLDTSVSTAYLQISSLKAEDTAVYYCARWDFYDYVEAMDYWGQGTTVTVSS
VL: DIQMTQSPSSLSASVGDRVTITCKASQTVSANVAWYQQKPGKAPKLLIYLASYRYRGVPSRFSGSGSGTDFTLTISSLQPEDFATYYCHQYYTYPLFTFGQGTKLEIKR
notes: also called CLA1 rH11
Broadly, the EC50 (read off the curve) is the concentration that produces a half-maximal response. The low end stands for an effect from little substance, the high end for a need for much substance. Consider B1, for which the concentration for a half-maximal effect (EC50 (read off the curve)) in test [1] was about 0.6 mg/L.

B2: 1C8 Fab (hc/wt) (Fab, V domains shown)
VH: B1 VH with D103H
VL: DIQMTQSPSSLSASVGDRVTITCKASQNVGTNVAWYQQKPGKAPKLLIYSASYRYSGVPSRFSGSGSGTDFTLTISSLQPEDFATYYCHQYYTYPLFTFGQGTKLEIK
notes: Fab format
By koff is commonly meant the rate constant with which the complex falls apart. As a reminder, the kon is the second-order rate constant of association. For the molecule B2, the Kd in test [2] is 0.586 µM. In test [3], the Kd came to 0.586 µM, the off-rate (koff) came to 0.0076 s⁻¹ and the kon was found to be 12900 M⁻¹ s⁻¹. Moreover, in test [4], the Kd was found to be 0.000693 µM, the koff came out at 0.000324 s⁻¹ and the kon stood at 467000 M⁻¹ s⁻¹.

B3: Affinity Matured CDRH-3 construct with CDR-H3 SEQ ID NO:35 (WDFAYYLEAMDY) (Fab, V domains shown)
VH: B1 VH with Y102A, D103Y, V105L, V117I
VL: B2 VL
On to B3, for which the Kd in test [2] was determined as 0.069 µM.

B4: Affinity Matured CDRH-3 construct with CDR-H3 SEQ ID NO:34 (WDFAYYFQTMDY) (Fab, V domains shown)
VH: B1 VH with Y102A, D103Y, V105F, E106Q, A107T
VL: B2 VL
B4 gave a Kd in test [2] of 0.044 µM.

B5: Affinity Matured CDRH-3 construct with CDR-H3 SEQ ID NO:33 (WDFAHYFQTMDY) (Fab, V domains shown)
VH: B1 VH with Y102A, D103H, V105F, E106Q, A107T
VL: B2 VL
As to B5, the Kd in test [2] is 0.059 µM.

B6: H3 Full (5) 19 Fab (hc/wt) (Fab, V domains shown)
VH: B1 VH with N35S, F101A, Y102F, D103E, E106K, M108L
VL: B2 VL
In the case of B6, in test [4], the Kd is 0.00019 µM, the dissociation rate constant (koff) was 0.000175 s⁻¹ and the kon came to 902000 M⁻¹ s⁻¹.

B7: humanized PR1A3 antibody comprising heavy chain variable region construct CH7A and light chain variable region construct CL1A (antibody, V domains shown)
VH: B1 VH
VL: B2 VL
notes: also called CH7A CL1A; CH7A, CL1A
As to B7, in test [5], the “EC50 (read off the curve)” value was about 0.7 mg/L.
